# B1: Gal4 DNA-binding domain fused to the L119 protein (yeast two-hybrid bait) (other)
# chain: MKLLSSIEQACDICRLKKLKCSKEKPKCAKCLKNNWECRYSPKTKRSPLTRAHLTEVESRLERLEQLFLLIFPREDLDMILKMDSLQDIKALLTGLFVQDNVNKDAVTDRLASVETDMPLTLRQHRISATSSSEESSNKGQRQLTVSMEKWTAWEPQGADALRRFQGLLLDRRGRLHCQVLRLREVARRLERLRRRSLAANVAGSSLSAAGALAAIVGLSLSPVTLGASLVASAVGLGVATAGGAVTITSDLSLIFCNSREVRRVQEIAATCQDQMRELLSCLEFFCQWQGRGDRQLLQSGRDASMALYNSVYFIVFFGSRGFLIPRRAEGATKVSQAVLKAKIQKLSESLESCTGALDELSEQLESRVQLCTKAGRGHNLRNSPDLDAALFF
# notes: also called L119 bait
# Columns and labels:
# Experiment in all cases: yeast two-hybrid screen; number of positive colonies with this interactor
# Matrilin-2 = Matrilin-2 (rat, UniProt A0A8I6GJR4 24-910)
# Method: (§1) A yeast two hybrid screen was carried out in order to identify A proteins which interact with L119. The entire coding region of the L119 cDNA was amplified in a polymerase chain reaction (PCR) and cloned into vector pPC86. The oligonucleotide primers having the sequences SEQ ID NO: 35 and 36 were used to do this. A 50 μl PCR mixture was prepared from 5 μl of 10× cloned Pfu buffer (Stratagene); 2 μl of DNTP mixture (5 mM; Cat. No. 1969064, Roche Diagnostics GmbH, Mannheim, Germany); in each case 2 μl of the abovementioned primer pairs (stock conc. 10 μM); 100 ng of rL119 cDNA template, 35 μl of H₂O and 1 μl of Pfu turbo DNA polymerase (Stratagene), and, after it had been incubated at 94° C. for 3 minutes, 28 PCR cycles were then carried out in accordance with the following temperature programm: 1 min of primer annealing at 56° C., 1 min of strand extension at 72° C. and 1 min of DNA double-strand melting at 94° C., together with a concluding extension step of 7 min at 72° C. The resulting PCR products were gel-purified, cut with the restriction enzymes SalI and NotI and cloned into the corresponding restriction cleavage sites of pPC86. The DNA construct obtained in this way encodes a protein in which the Gal4 DNA-binding domain is fused to the L119 protein. The yeast strain Y190 (Flick JS and Johnston M (1990) Mol. Cell. Biol. 10, 4757-4769; Harper J et al. (1993) Cell 75, 805-816) (from Life Technologies) was transformed with this construct. The resulting yeast strain was transformed with a rat brain cDNA library (obtained from cortex and hippocampus RNA, following maximal electroconvulsive shock (MECS) (Antony Lanahan and Paul Worley)) in the vector pPC86 (from Life Technologies), and 3×10⁶ transformants were plated out. After 3 to 5 days of growth at 30° C., colonies having a diameter of more than 2 mm were isolated and subjected to X-Gal staining (protocol: ProQuest™ Two-Hybrid System, Cat. Series 10835, Life Technologies) . […] The respective cDNA from these colonies was amplified using vector-specific primers and the-amplicon was sequenced (protocol: ProQuest™ Two-Hybrid System, Cat. Series 10835, Life Technologies). The sequence analysis gave 8 different putative interacting proteins (Table 1): […]
# Nel = Nel (rat, UniProt Q62918)
# Method: as §1
# Notch 4 = Notch 4 (rat)
# Method: as §1
# Laminin alpha-4 chain = Laminin alpha-4 chain (rat)
# Method: as §1
# Sequence of Nel (Q62918 whole entry): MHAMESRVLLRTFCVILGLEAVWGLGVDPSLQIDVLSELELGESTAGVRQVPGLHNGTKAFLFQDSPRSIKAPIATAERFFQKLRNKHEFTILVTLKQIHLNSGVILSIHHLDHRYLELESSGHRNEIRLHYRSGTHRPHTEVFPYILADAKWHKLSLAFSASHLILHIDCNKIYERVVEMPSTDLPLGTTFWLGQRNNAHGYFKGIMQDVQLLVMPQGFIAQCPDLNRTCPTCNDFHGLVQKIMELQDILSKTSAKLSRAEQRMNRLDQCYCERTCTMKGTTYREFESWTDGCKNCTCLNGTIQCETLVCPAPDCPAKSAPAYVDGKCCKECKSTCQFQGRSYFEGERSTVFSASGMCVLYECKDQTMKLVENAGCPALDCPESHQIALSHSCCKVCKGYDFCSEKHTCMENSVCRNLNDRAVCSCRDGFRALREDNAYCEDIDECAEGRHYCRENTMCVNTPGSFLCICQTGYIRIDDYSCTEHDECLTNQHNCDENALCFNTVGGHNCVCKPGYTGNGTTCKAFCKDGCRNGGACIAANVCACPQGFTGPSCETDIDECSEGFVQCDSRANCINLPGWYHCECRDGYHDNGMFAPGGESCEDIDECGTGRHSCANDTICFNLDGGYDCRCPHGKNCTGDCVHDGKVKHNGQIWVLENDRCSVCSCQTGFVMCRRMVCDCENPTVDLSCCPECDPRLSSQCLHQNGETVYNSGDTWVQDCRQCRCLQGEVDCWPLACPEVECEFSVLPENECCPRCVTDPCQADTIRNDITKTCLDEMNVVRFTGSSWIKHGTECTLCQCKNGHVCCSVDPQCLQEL
# Sequence of Matrilin-2 (A0A8I6GJR4 entry or part of it): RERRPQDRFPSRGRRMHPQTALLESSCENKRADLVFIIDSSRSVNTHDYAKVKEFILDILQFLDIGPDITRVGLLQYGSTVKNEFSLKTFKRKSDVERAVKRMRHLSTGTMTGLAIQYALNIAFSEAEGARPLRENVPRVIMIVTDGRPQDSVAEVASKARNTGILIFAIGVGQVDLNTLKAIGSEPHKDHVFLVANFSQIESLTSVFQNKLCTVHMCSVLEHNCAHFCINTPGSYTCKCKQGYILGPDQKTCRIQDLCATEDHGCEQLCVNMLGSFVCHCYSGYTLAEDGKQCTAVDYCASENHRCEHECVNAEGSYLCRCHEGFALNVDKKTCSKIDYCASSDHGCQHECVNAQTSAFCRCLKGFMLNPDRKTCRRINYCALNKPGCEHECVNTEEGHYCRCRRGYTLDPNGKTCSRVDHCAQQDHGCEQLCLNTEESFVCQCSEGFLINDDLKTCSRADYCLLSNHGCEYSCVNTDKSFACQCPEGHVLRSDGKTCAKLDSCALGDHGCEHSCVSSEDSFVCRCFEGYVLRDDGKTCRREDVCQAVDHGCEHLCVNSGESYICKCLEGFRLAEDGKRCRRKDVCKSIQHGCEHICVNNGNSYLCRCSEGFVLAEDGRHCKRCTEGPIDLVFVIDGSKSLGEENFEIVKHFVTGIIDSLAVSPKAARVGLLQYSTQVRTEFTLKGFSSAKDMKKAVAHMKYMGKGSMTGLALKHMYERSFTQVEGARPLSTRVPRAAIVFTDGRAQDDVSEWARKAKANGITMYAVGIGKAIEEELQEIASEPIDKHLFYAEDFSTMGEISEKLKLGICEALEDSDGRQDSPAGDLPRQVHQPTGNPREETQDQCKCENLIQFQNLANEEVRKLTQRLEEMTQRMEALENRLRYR
binder,measurement,setting,value
B1,# Frequency,Matrilin-2,1
same,# Frequency,Nel,5
same,# Frequency,Notch 4,3
same,# Frequency,Laminin alpha-4 chain,1

# Source: patent US20040260058A1 (published 2004)
